To fix the notation:
B1: mouse PD-1, wild type (soluble, monomeric) (domain or fragment, UniProt Q02242 25-169, looked up)
chain: LEVPNGPWRSLTFYPAWLTVSEGANATFTCSLSNWSEDLMLNWNRLSPSNQTEKQAAFCNGLSQPVQDARFQIIQLPNRHDFHMNILDTRRNDSGIYLCGAISLHPKAKIEESPGAELVVTERILETSTRYPSPSPKPEGRFQGM
notes: mouse PD-1, soluble monomeric form used as SPR analyte; the construct used here is not described; also called mPD-1; murine PD-1
B2: human PD-L2 Ig fusion protein (Fc fusion, UniProt Q9BQ51 20-220, looked up)
chain: LFTVTVPKELYIIEHGSNVTLECNFDTGSHVNLGAITASLQKVENDTSPHRERATLLEEQLPLGKASFHIPQVQVRDEGQYQCIIIYGVAWDYKYLTLKVKASYRKINTHILKVPETDEVELTCQATGYPLAEVSWPNVSVPANTSHSRTPEGLYQVTSVLRLKPPPGRNFSCVFWNTHVRELTLASIDLQSQMEPRTHPT
notes: characterized by SEC prior to use; also called huPD-L2; B7-DC; source: bought: R&D Systems

Assay [1] deals with human mature dendritic cells expressing PD-L1 and PD-L2.
Assay [2] addresses T1, human PD-L1 Ig fusion protein (human, UniProt Q9NZQ7 19-238).
T1 construct: characterized by SEC prior to use; detected on cells with anti-human IgG Fcγ-specific F(ab')2; also called huPD-L1; B7-H1; source: bought: R&D Systems
The assay is described as follows: SPR; BIAcore 3000, 25 °C; PD-L1-Ig or PD-L2-Ig immobilized on CM5 chip by amine coupling; soluble monomeric PD-1 or mutants (0.01–100 μM) injected at 20 μl/min; equilibrium Kd, 1:1 Langmuir model. Particulars: both partners purified.

Assay [3] has as its target B2. The assay is described as above. The note with it: both partners purified.
Assay [4] concerns the target T2, full-length human PD-1 I126A, on HEK293 cells (human, UniProt Q15116 25-288, I126A).
T2 construct: Gateway pEF5/FRT/V5-DEST destination vector; source: HEK293, transiently transfected, on the cell surface
Briefly: flow cytometry on cells; HEK293 cells transiently transfected with full-length wild type or mutant human PD-1, incubated with PD-L1 or PD-L2 Ig fusion proteins (0.01–50 μg/ml) for one hour on ice; APC anti-human IgG F(ab')2 Fcγ specific; MFI normalized to wild type PD-1 binding; relative binding at 0.5 μg/ml ligand. Particulars: one partner purified.

The values that follow come from publication PMC5360572 (EBioMedicine, 2017).

T2 sequence (Q15116 25-288 I126A): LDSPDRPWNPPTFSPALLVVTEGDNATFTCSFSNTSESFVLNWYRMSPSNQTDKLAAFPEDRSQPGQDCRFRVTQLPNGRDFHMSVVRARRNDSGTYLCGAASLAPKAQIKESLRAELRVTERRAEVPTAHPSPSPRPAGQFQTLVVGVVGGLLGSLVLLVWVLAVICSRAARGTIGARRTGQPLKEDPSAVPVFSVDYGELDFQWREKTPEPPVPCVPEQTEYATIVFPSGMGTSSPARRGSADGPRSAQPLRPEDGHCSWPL
T1 sequence (Q9NZQ7 19-238): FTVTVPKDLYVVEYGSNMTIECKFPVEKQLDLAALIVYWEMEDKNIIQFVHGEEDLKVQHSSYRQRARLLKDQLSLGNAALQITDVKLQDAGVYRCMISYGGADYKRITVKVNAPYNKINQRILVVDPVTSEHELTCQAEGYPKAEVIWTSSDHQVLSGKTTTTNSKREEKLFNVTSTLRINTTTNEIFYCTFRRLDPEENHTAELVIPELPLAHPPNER

In the case of “high-affinity human PD-1 (A132L) Ig fusion protein (from UniProt Q15116 25-170) (Fc fusion)”, in assay [1], the T cell proliferation (3H-thymidine uptake) in allogeneic MLR with dendritic cells pre-treated with HA PD-1 Ig (0.5–5 μg/ml), against untreated control is above 50%; the production of IFN-γ and IL-12p70 in allogeneic MLR, against untreated control (no Ig) was above 6 fold.
In the case of B1, the Kd in assay [2] was found to be 4.02 µM; in assay [3] it was 10.7 µM.
Regarding B2, the “reduction of binding relative to wild type PD-1” value in assay [4] worked out at 50%.
